The results in this text go back to the supplement of paper PMC10567573.

± gives the standard deviation.

The nature of this data set: protein stability index of a GFP-peptide fusion (GPS, HEK-293T) (PSI 1-6); higher = more stable.
Where [1] appears, read: treatment: DMSO, c terminus: a fixed tail appended.
The mark [2] stands for this setting: treatment: MLN4924 1 uM, 8 h, c terminus: a fixed tail appended.
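Note: 24-mer peptide tiles fused after GFP, lentivirally expressed, FACS-sorted into six equal bins by GFP/DsRed ratio, decoded by Illumina sequencing, PSI is the read-weighted mean bin number.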

As for HITKTVKGGISETRIEKRIVITGD [EPB41L3], the protein stability index runs as follows: under setting [1], 3.85 ± 0.28; under setting [2], 3.96 ± 0.12.
The like results for HIWELSSIKNSLKVAAISESPVAE [PTGFR] were, in that order, 3.11 ± 0.28 and 3.21 ± 0.39.
The like results for HKADSIQGTARTLSPVLESPRDLQ [TNXB] were, in that order, 4.75 ± 0.18 and 4.9 ± 0.14.
For HLRNKTEDLEATSEHFKTTSQKVA [VAMP8], the protein stability index came out at 5.01 ± 0.24 under setting [1] and 5.07 ± 0.14 under setting [2].
HLVAGGGAGAVSRTCTAPLDRLKV [SLC25A25]: the protein stability index runs as follows: under setting [1], 3.11 ± 0.35; under setting [2], 3.25 ± 0.22.
In the same order, the values of HMEEEVEDFLLKKPIVPTDGKRVI [CDC25A] are 4.68 ± 0.096 and 4.84 ± 0.24.
With HPPPSTPIKLEEGDGCAREYLLP [ADD1], the protein stability index reads like this: (treatment: DMSO, c terminus: native) 5.13 ± 0.2; (treatment: MLN4924 1 uM, 8 h, c terminus: native) 4.81 ± 0.09.
Regarding HQRTHTGEKPFTCHECGKKFSQNS [ZNF75A], the protein stability index under setting [1] worked out at 3.14 ± 0.27 and the protein stability index under setting [2] turned out to be 3.47 ± 0.33.
HRLGSPYGHCTAGGEGVEVELLHN [SCNN1D] showed a protein stability index under setting [1] of 3.9 ± 0.34 and a protein stability index under setting [2] of 3.82 ± 0.37.
In the same order, the values of HRNQCQYCRLKKCLKVGMRREAVQ [NR2F2] are 2.39 ± 0.47 and 2.57 ± 0.57.
With HRRRNQLIKKKKEELEAKRLQCPF [FAM107A], the protein stability index by setting is: under setting [1], 3.95 ± 0.38; under setting [2], 4.22 ± 0.16.
Consider HRRTVKMRKGNTMQQFLQKALEIL [FAM50A], for which the protein stability index worked out at 3.08 ± 0.36 under setting [1] and 2.77 ± 0.42 under setting [2].
In the same order, the values of HRYIAYMANQEAAIQAFLDKCSAP [IQUB] are 2.51 ± 0.2 and 2.38 ± 0.46.
The like results for HSSWTPPNAQYWSQFHSVRPQGPQ [DNAJC4] were, in that order, 3.23 ± 0.053 and 3.34 ± 0.22.
In the same order, the values of HTLRASMRELGLLIFFLFIGVILF [KCNA4] are 2.86 ± 0.53 and 2.61 ± 0.49.
Regarding HTPTPFKNALEKYGPLKPLPQTPH [MYBL2], the protein stability index worked out at 3.56 ± 0.28 under setting [1] and 3.91 ± 0.35 under setting [2].
The like results for HVKMMLSGVCLFAVFIALLPILGH [PTGFR] were, in that order, 2.97 ± 0.83 and 2.79 ± 0.78.
The sequence HVTCVDQSEHTMVLRCQLSAEEVR [C2CD2L] had a protein stability index under setting [1] of 3.73 ± 0.19 and a protein stability index under setting [2] of 3.82 ± 0.18.
Turning to HYPFLGAMGDHSKKKPGTAMCVGC [ISL2], the protein stability index came to 2.86 ± 0.34 under setting [1] and 3.25 ± 0.43 under setting [2].
In the same order, the values of HYSLLTSQPLDREATSHYIIELLA [PCDHGC5] are 2.36 ± 0.13 and 2.63 ± 0.32.
Take IAERLGCTLPQLAIAWCLRNEGVS [KCNAB2]: the protein stability index under setting [1] turned out to be 2.88 ± 0.44 and the protein stability index under setting [2] was determined as 2.71 ± 0.66.
IAIPEWFLSENATVAAETRAVIAW [CPXM2] returned a protein stability index under setting [1] of 2.24 ± 0.25 and a protein stability index under setting [2] of 2.08 ± 0.14.
Regarding IAVLGIVMLKRIHSLYRRTGASFQ [SCAMP3], the protein stability index reads like this: under setting [1], 2.34 ± 0.53; under setting [2], 2.25 ± 0.18.
The like results for IAWIKDKLLHIYYQNSIDDRLLVE [PDS5B] were, in that order, 2.82 ± 0.36 and 2.43 ± 0.44.
On to IEGLKEELAYLRKNHEEEMLALRG [KRT16], for which the protein stability index reads like this: under setting [1], 3.79 ± 0.35; under setting [2], 3.77 ± 0.32.
For IEITFSYWDGSGHRRTVKMRKGNT [FAM50A], the protein stability index under setting [1] is 2.27 ± 0.25 and the protein stability index under setting [2] is 2.19 ± 0.18.
IGTQGPLENTYRDFWLMVWEQKVL [PTPN9]: the protein stability index by setting is: under setting [1], 2.31 ± 0.24; under setting [2], 1.79 ± 0.29.
In the same order, the values of IHAELSKLVKKHAAQRSTETALYR [FKBP8] are 2.94 ± 0.31 and 2.69 ± 0.44.
The like results for IHHLVLTASDGGDPLRSGTVLVSV [PCDHGA10] were, in that order, 2.97 ± 0.45 and 2.79 ± 0.34.
